Data: IntAct's records for PubMed 31515488

B1: Protein sprouty homolog 1 (Homo sapiens), O43609 (parent)
chain: MDPQNQHGSGSSLVVIQQPSLDSRQRLDYEREIQPTAILSLDQIKAIRGSNEYTEGPSVVKRPAPRTAPRQEKHERTHEIIPINVNNNYEHRHTSHLGHAVLPSNARGPILSRSTSTGSAASSGSNSSASSEQGLLGRSPPTRPVPGHRSERAIRTQPKQLIVDDLKGSLKEDLTQHKFICEQCGKCKCGECTAPRTLPSCLACNRQCLCSAESMVEYGTCMCLVKGIFYHCSNDDEGDSYSDNPCSCSQSHCCSRYLCMGAMSLFLPCLLCYPPAKGCLKLCRRCYDWIHRPGCRCKNSNTVYCKLESCPSRGQGKPS

Variants of: B1
Settings: with nt2na_human NOTCH2NLA

Effect of a mutation on the interaction, with no effect:
R24H
R296K
A37T

Variants of: B1
Settings: with otx1_human OTX1, P32242
Sequence of otx1_human OTX1, P32242 (P32242 whole entry): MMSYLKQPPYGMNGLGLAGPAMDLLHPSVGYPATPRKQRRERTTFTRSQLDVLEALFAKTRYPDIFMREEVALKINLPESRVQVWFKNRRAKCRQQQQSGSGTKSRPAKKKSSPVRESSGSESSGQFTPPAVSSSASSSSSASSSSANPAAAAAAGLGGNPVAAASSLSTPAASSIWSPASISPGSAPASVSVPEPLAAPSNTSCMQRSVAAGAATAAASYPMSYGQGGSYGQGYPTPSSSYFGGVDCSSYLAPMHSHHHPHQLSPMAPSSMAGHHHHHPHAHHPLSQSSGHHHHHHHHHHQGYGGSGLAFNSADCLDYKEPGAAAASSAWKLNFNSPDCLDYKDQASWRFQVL

Effect of a mutation on the interaction, with no effect:
R24H
R296K
A37T

Variants of: B1
Settings: with meox2_human MEOX2, P50222
Sequence of meox2_human MEOX2, P50222 (P50222 whole entry): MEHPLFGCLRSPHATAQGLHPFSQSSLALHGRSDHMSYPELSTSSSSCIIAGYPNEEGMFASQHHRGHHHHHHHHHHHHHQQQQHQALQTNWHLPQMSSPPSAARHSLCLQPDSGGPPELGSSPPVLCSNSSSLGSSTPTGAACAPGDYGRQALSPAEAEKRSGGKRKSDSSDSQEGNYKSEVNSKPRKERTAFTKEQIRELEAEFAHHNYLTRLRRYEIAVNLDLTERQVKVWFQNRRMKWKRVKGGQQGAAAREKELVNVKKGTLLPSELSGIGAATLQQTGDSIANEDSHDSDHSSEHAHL

Effect of a mutation on the interaction, with no effect:
R24H
R296K
A37T

Variants of: B1
Settings: with kr101_human KRTAP10-1, P60331
Sequence of kr101_human KRTAP10-1, P60331 (P60331 whole entry): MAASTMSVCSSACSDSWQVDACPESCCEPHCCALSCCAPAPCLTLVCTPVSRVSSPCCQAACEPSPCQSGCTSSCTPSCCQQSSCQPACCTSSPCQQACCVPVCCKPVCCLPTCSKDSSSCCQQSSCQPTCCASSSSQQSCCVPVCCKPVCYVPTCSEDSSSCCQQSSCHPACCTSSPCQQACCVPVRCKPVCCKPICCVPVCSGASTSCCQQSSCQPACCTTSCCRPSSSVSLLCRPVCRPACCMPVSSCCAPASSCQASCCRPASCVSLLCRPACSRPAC

Effect of a mutation on the interaction, with no effect:
R24H
R296K
A37T
